{"source": "paper PMC6105367", "about": "(The FEBS journal, 2018)", "target": "the molecule itself", "assay": "negative-stain electron microscopy"}
{"protein": "full-length zebrafish ASC, recombinant, His-NusA-GB1 tag cleaved off (natural protein, UniProt Q9I9N6 1-203, looked up) MAESFKEHLQEAFEDLGADNLRKFKSKLGDRRQEPRVTKSAIEKLKDEIDLADLMVGVFTSKDAVSVTVEILRAIKCNAVADDLLRNTGQSESKGALSDESKCASSKAVSKVAFSKVNFIDEHWKELIDRVNNVDPILDILRQKKVITNEDYCTIRNKETPQKKMRELLTGPITCAGNKGKEVLYDALRESNKFLMDDLEDAE", "values": [{"measurement": "binding result", "value": "binds"}]}
